Laboratory results: the nanobody polyreactivity screen of Harvey et al. (2022)

Experiment: yeast display, Sf9 membrane polyspecificity reagent, FACS + sequencing; frameworks hold sequencing errors
Outline: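 Polyreactivity labels are assigned by the sorting gate from which each nanobody was recovered. The gates were low and high (top ~1%), set on anti-HA fluorescence for expression and streptavidin fluorescence for reagent binding. Before sorting, galactose-induced (36–48 hours) yeast display cells were stained for 1 hour at 4 °C with 10% biotinylated, detergent-solubilized Sf9 membrane reagent.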

Sequence	polyreactivity (PSR sort gate)
QVQLVESGGGLVQAGGSLRLSCAASGSIFKSYAMGWYRQAPGKERELVAAISWSGTSTYYADSVKGRFTISRDHAKNTVYLQMNSLKPEDTAVYYCAASGDYGEYGYWGQGTQVTVSS	low polyreactivity
QVQLVESGGCLVQAGGSLRLSCAASGIIFYRYAMGWYRQAPGKERELVAAITYSGGRTYYADSVKARFTISRDNAKNTVYLQMNSLKTEDTAVSDCAAAGRFGDYWGQGTQVTVSS	high polyreactivity
QVQLVESGGGLVQAGGSLRLSCAASGSIFGTYAMGWYRQAPGKERELVAAISWSDGSTYYADSVKGRFTISRDNAKNTVYLQMNSLKPEDTAVYYCAKVYRSIGPNVSRYGLSYYYWGQGTQVTVSS	low polyreactivity
QVQLVESGGGLVQAGGSLRLSCAASGSTFYDNAKGWYRQAPGKERELVAGITESGGSTYYADSVKGRFTISRDNAKNTVYLQMNSLKPEDTAVYYCAAVYTYIPYLTYYYWGQGTQVTVSS	low polyreactivity
QVQLVESGGGLVQAGGRLRLSCAASGGIFDTYVMGRYRQAPGKERELVAGISSTGGSTYYADSVKGRFTISRDNAKNTVYLQMNSLKPEDTAVYYCNAEAGGFDYYGKTYRYGDYWGQGTQVTVSS	low polyreactivity
QVQLVESGGGLVQAGGSLRLSCAASGSTFRYYTMGWYRQAPGKERELVARISWSGGSTYYAYSVKGRFTISRDNAKYTVYLQMNSLKPEDTAVYYCNAVLFYFQTRDYWGQGTQVTVSS	high polyreactivity
QVQLVESGGGLVQAGGSLRLSCAASGRIFSTNAMGWYRQAPGTERELVAAISRRGASTYYADSVKGRFTISRDNAKNTVYLQMNSLKPEDTAVYYCAAVIGTGGRYNYWGQGTQVTVSS	high polyreactivity
QVQLVESGGGLVQAGGSLRLSCAASGSTFSYYTMPWYRQAPGKERELVAAISRSGANTHYADSVKGRFTISRDNAKITVYLQMNSMKPEDTAVYYCAKVHSGRHYDYWGQGTQVTVSS	high polyreactivity
QVQLVESGGGLVQAGGSLRLSCAASGIIFARNTMGWYRQAPGKERELVAAISTRGTTSYYADSVKGRFTISRDNAKYTVYLQMNSLKPEDTAVYYCAAVRVHTDRYNYWGQGTQVTVSS	high polyreactivity
QVQLVESGGGLVQAGGSLRLSCAASGRIFVNNAMGWYRQAPGKEREFVAGISFSGDGRTYYADSVKGRFTISRDNAKNTVYLQMNSLKPEDTAVYYCAAPHRSRTHELDYWGQGTQVTVSS	low polyreactivity
QVQRVDSGGGLVQAGGSLRLSCAASGFTFAVYAMGWYRQSPGKERELVAAISRSGTRTYYADSVKGRFTISRDNAKNTVYLQMNSLKPEDTAVYYCAADKYRLGYDYWGQGTQLTVSS	low polyreactivity
QVQLVESGGGLVQAGGSLRLSCAASGRTSSIYTMGWYRQAPGKERELVAAIRGRGGNTYYADSVKGRFTISRDYAKNTVYLLMNSLKPEDTAVYYCNAKPQGVGLYRYEYWGQGTQVTVSS	high polyreactivity
QVQLVESGGGLVQAGGSLRLSCAASGSTFYSNVMGWYRQAPGKERELVAAISRSGGSTYYADSVKGRFTISRDNAKNTVYLQMNSLKPEDTAVYYCAARTYRRPYYSWGQGTQVTVSS	high polyreactivity
QFQLVESGRGLVQAGGSLRLSCAASVRTFGFNAMGRYRQAPRKERELVAAISGSGGRTYYADSVKGRFTISRDKAKNTVYLQMNSLKPEDTAVYYCAAGARRGGSGYWGQGTQVTVSS	high polyreactivity
QVQLVESGGGLVQAGGSLRLSCAASGLTFDSNVMGWYRQAPGKERELVAAITSSGRTYYADSVKGRFTISRDNEKNTVYLQMNSLKPEDTAVYYCAARNLAYTRKGYYYWGQGTQVTVSS	high polyreactivity
QVQLVESGGGLVQAGGSLRLSCAASGSIFWTNAMGCYIQAPGKERELVAAITGGGTTYYADSVKGRFTISRDNAKNTVYLQMNSLKPEDTAVVYTVSSAQYDYWGQGTQVTVSS	low polyreactivity
QVQLVESGGGLVQAGGSLRLSCAASGRIFSYYAMGWYRQAPGKERELVAAISKGGTSTYYADSVKGRFTISRDNSKNTVYLQMNRLKPEDTAVYYCAAARPKPVDYLGQGTQVTVSS	high polyreactivity
